The results in this text go back to US20070237775A1 (Eli Lilly, published 2007).

Where a chain is given by its changes, count along the chain named.

Assay [1] deals with T1, human ghrelin peptide spanning amino acids 4-20 (human).
T1 peptide: FLSPEHQRVQQRKESKK
Nature of the assay: FLIPR calcium assay, peptide competing with hGhrelin for the Fab. The procedure: (§1) The wells are then washed twice with HBSS and 50 μL FLIPR buffer is then added per well.
(§2) Samples are prepared by combining 7.2 μl calcium concentrate (CaCl₂-2H₂O in water at 3.7 mg/ml mixed 1:1 with HBSS and filter sterilized) with 30 μl peptide, 30 μl Fab (of varying concentration), and 16.8 μl hGhrelin (2.5 μM stock) in 3.75% BSA/50% HBSS. The final concentration of the sample solution is 0.75% BSA, and calcium at approximately the same concentration as in the FLIPR buffer. Fifty microliters of the sample solution is added to the 50 μl FLIPR buffer in the well with the AV12 cells. The final concentration of the peptide is 100 nM and the final concentration of the hGhrelin is 0.83 nM. The cell plate is shaken for about 15 seconds prior to loading it into the FLIPR instrument. Test samples or control samples are added to each well, and read by a Fluorometric Imaging Plate Reader (Molecular Devices).
(§3) If there is no Fab or an irrelevant antibody present in the solution, the full-length hGhrelin will be free to bind the GHS-R1a receptor on the AV12 cells and signal transduction will occur resulting in comparatively high values in the assay. If a Fab is present that binds to the full-length hGhrelin in the solution, then the full-length hGhrelin binding to the GHS-R1a receptor is inhibited and signal transduction is thereby inhibited resulting in comparatively lower values in the assay. However, if a peptide (i.e., a fragment of human ghrelin) is also added to the solution and the Fab binds the peptide, then the full-length hGhrelin is not prevented from binding the GHS-R1a receptor, signal transduction is not inhibited, and the values in the assay are comparatively high. […] The peptides competing with hGhrelin for Fab binding were used in the assay at a concentration over 50 times that of hGhrelin.

Assay [2] concerns the target T2, human ghrelin peptide spanning amino acids 18-28 (human).
T2 construct: also called hGhrelin 18-28; ghrelin peptide 18-28
T2 peptide: SKKPPAKLQPR
Described as above. The procedure: as §1, §2, §3

The target of assay [3] is T3, human ghrelin peptide spanning amino acids 20-28 (human).
T3 construct: also called hGhrelin 20-28
T3 peptide: KPPAKLQPR
Nature of the assay: peptide competition with full-length hGhrelin for the Fab.

B1: Fab 3281 (Fab, V domains shown)
VH: QVQLQQSRAELAKPGASVKMSCKASGYTFTSYWMHWVKQGPGQGLEWIGYINPSTGYTEYTQKFKDKATLTADKSSSTAYMQLSSLTSEDSAVYYCATDGYDEDYWGQGTTLTVSS
VL: DAVMTQIPLTLSVTIGQPASISCRSSQSLGHSNGNTYLHWYLQKPGQSPKLLIYKVSNRFSGVPDRFSGSGSGTDFTLKISRVEAEDLGTYFCSQSTLVPWTFGGGTKLEIKR
notes: Murine Fab from an Omniclonal antibody library (immunized C57/Bl6 mice); kappa light chain (captured and detected with goat anti-mouse kappa)
Consider B1, for which the binding result in assay [1] is recorded as “no binding (tested: peptide 100 nM)”; in assay [2], “no binding (tested: peptide 100 nM)”; in assay [3], “no binding”.

B2: Fab 4281 (Fab, V domains shown)
VH: QVQLQQSRAELAKPGASVKMSCKASGYTFTSYWIHWIKQRPGQGLEWIGYIDPGIGNIEYNQKFQDKATLTADKSSSIVYMQLNRLTSEDSAVYYCATDGYDEDYWGQGTTLTVSS
VL: B1 VL with A2V, I7T, T10S, S12P, T14S, I15L, Q17D, P18Q, G30V
notes: Murine Fab, kappa light chain
Consider B2, for which, in assay [1], the binding result was “no binding (tested: peptide 100 nM)”.

B3: Fab 4731 (Fab, V domains shown)
VH: B1 VH
VL: B1 VL with A2V, I7T, T10S, S12P, T14S, I15L, Q17D, P18Q, G30V
notes: Murine Fab, kappa light chain
On to B3, for which the binding result in assay [1] is “no binding (tested: peptide 100 nM)”.
